One molecule from patent US20020090382A1 (UNIVERSITY OF PITTSBURGH OF THE COMMONWEALTH SYSTEM OF …, published 2002) can be followed below.

The target in assay [1] is T1, HveC(346t) (UniProt Q15223 31-346).
T1 construct: Purified soluble receptor coated on ELISA plates; also called recombinant HveC; soluble gD receptor HveC
T1 sequence: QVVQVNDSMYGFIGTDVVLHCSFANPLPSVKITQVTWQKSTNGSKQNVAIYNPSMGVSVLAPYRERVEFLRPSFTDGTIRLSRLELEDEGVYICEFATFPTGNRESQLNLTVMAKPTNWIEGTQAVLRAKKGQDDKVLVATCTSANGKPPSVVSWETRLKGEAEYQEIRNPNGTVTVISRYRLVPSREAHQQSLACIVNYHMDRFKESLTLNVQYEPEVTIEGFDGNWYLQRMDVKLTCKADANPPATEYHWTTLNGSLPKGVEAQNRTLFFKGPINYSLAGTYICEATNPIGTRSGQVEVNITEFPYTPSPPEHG
Put plainly: ELISA, peptide on coated HveC(346t), antiserum R11. (In general: ELISA stands for enzyme-linked immunosorbent assay.)

Assay [2] has as its target T2, HveA(200t) (UniProt Q92956 39-200).
T2 construct: Purified soluble receptor coated on ELISA plates; also called recombinant HveA; soluble gD receptor HveA
T2 sequence: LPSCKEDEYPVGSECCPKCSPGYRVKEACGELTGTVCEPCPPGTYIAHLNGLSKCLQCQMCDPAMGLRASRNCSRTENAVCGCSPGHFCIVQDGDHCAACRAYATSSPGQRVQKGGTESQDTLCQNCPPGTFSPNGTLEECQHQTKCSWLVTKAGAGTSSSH
The experiment in a line: ELISA, peptide on coated HveA(200t), antiserum R11.

With ASLKMADPNRFRGKDLPVLDQ (synthetic peptide) [Polypeptide A1], the binding result in assay [1] is “no binding (tested: between 1 µM and 1000 µM)”; in assay [2], “no binding (tested: between 1 µM and 1000 µM)”.
